The DeepSol protein solubility set

assay: soluble on expression in E. coli; label from the status in PepcDB or PDB records

Sequence | soluble on expression in E. coli
MRKSDREAFLSSVLGNEQPPAHLARTVIEEKLRNAIIDGSLPSGTALRQQELATLFGVSRMPVREALRQLEAQSLLRVETHKGAVVAPLITEDAVDAYALRILLESEALRLSIPLLDADDLAAAASYIEQLEVETDFGQIGRLNRMFHLSLYAKTHNKRLMRLVEEGLNEEERFLRFNLSSMGLGKLSQDDHWQLLRLAEQKAVEPCVEALQYHLNRGVQAVTQYLQSQKAGNVKPARTKKNTPA | soluble
DGSCTNTNSQLSANSKCEKSTLTNCYVDKSEVYGTTCTGSRFDGVTITTSTSTGSRISGPGCKISTCIITGGVPAPSAACKISGCTFSAN | soluble
MSTLKIAPSILAADYANFASELARIEETDAEYVHIDIMDGQFVPNISFGADVVASMRKHSKLVFDCHLMVVDPERYVEAFAQAGADIMTIHTESTRHIHGALQKIKAAGMKAGVVINPGTPATALEPLLDLVDQVLIMTVNPGFGGQAFIPECLEKVATVAKWRDEKGLSFDIEVDGGVDNKTIRACYEAGANVFVAGSYLFKASDLVSQVQTLRTALNV | soluble
MGSDKIHHHHHHMTLNNLEIDTLVVGAGQAGVAMSEHLSKLGVPHLVLERNRIAQAWRTGRWDSLVANGPAWHDRFPGLEFNLDADAFAGKDQVADYFEQYVRKYNLPVRTGIEVKRVVRNSDRPGFTIDTSEGVIRANRVVAATGPFQKPVIPAIAPKDSNLHQIHSAAYFNPEQLPEGAVLVVGAGSSGVQIAEELMRAGRQVYLSVGAHDRPPRAYRNRDFCWWLGVLGEWDAEIAKPGREHVTIAVSGARGGHTVDFRALAHQGMTLVGLTQSFENGVARFQDNLVENINRGDDNYLALLDAADAYIERNGLDLPEEPEARQRLADPECMRNPLQQLDLAKAGVSSIIWATGYGVDFSWLQVDTFDANGKPQHQRGVAREPGVYFLGLPWLSRRGSSFIWGVWHDAKHVAGHIATQRTYTAYRDREQRAADEQQTAKISNVSTLGAH | not soluble
MERRSVQKKELLSTPVVPIDIKAFDAGPILEAMGKTAFQARNLHRAAEIYLRMLEDDCAVILTLAGSLVSAGQGLIVHDLIRKGLVDVIVATGANIVDQDFFEALGHRHYQGDPRADDEALRRLWIDRIYDTYIDEEELRHTDYTVAEIADGLEPRPYSSREFIWQMGRYLAERGLGEKRIVRRAYEKGVPIFVTAFSDSSAGFGLVYHQVKRPEAHVTIDSVADFRELTEIKLKAGTTGLVMLGGGVPKNFAQDIVVAAEVLGHRVEMHKYAIQITVADERDGGLSGSTLSEAQSWGKVDARLSQMVFAEATLAFPLLASYVWHRAPARAKRRYAELFREKAPA | soluble
MGSDKIHHHHHHMKAPEGIACGKRQLVVSDTGGGRLLSYSIENGSVRGGTEIKAEQVPYPTKVQLTSKGEILVIDGKLRRIAHFSPEGSFAGYLDLKGVPAPATIAPRGIRVDDKDNIHILDIFGARVIVTDAAGTFQSQMPFPEGYRFISDLAVSASGTTLLLDSVASRVYAAARGETAFKPLTDGMKEYLQFPTSIATDKQGKIFILDQTGNAVVTLGQDGSFQGRQLNIGWKNSFLHYPSQLCISEENDIDVVIADRNNNRIQVFRVVR | not soluble
MADEEKVTTEEQALADEWAAALAEAGDASQDDIDALMAQGGATPVAEPSTPRAPMEEFGASPKAPTISGLEGPNLDVILDIPVTISMEVGHTDISIRNLLQLNQGSVIELDRLAGEPLDVLVNGTLIAHGEVVVVNEKFGIRLTDVISPSERIKKLR | not soluble
GMDEKPAITKIISGGQTGADRAALDFAIKHHIPYGGWVPKGRLAEGGRVPETYQLQEMPTSDYSKRTEKNVLDSDGTLIISHGILKGGSALTEFFAEQYKKPCLHIDLDRISIEDAATLINSWTVSHHIQVLNIAGPRAGKDPEIYQATMDLLEVFLA | soluble
MNNYLKNLKEVFARIFRPNNRKSTRTYLQRSISYWRRNSIYLDNIYNKISTDTAQLRFKHVKITRNPGGVDSMVWYEHSDLAEVLTVSPNPLEVPVVFWSNVTRAMLRDGVAVVVPRWKNGRLVEIWLAKKTVTWTAESVELMLDDVAVELPLTDVWVFENPKLNVTAQLNQITELIDINLNALTEKLSDGNSSLRGFLKLPTKAADEHLKQQARDRVDSMLDLAKNGGIAYLEQGEEFQELSKDYSTASKEELEFLKSQLYNAHGINEKLFTCDYTEEQYRAYYSSVMKLYQRVYSEEINRKYFTKTARTQGNKLLVFFDMADMISFKDLVEGGFKSKYAGLMNSNEFRETYLGLPGYEGGEVFETNLNAVRIGAEESE | not soluble
